Experimental data published in patent US20220204580A1 (AstraZeneca / MedImmune, published 2022).
Numbered stars: 1 amine (or outer) side, 2 acyl side, 3 side chain; on linkers, the order of the positions; unused ones are H or OH. Bridge positions count the residues as written; N and C are the ends. Square brackets hold non-standard residues; d marks the D form. Side chains are listed from the residue outwards. Ends that are not written are not given here. * marks the point of attachment. C18 diacid = O=C(O)CCCCCCCCCCCCCCCCC(=O)*; γGlu = O=C(O)[C@H](CCC(=O)[*:2])N[*:1]; Aib = CC(C)(N)C(=O)O

How the values were obtained:
[1] = target: T1, human amylin receptor (calcitonin receptor co-expressed with receptor activity modifying protein, RAMP3) (human, UniProt P30988 25-474; O60896 24-148); test: cell-based or functional assay
T1 sequence (looked up) 1: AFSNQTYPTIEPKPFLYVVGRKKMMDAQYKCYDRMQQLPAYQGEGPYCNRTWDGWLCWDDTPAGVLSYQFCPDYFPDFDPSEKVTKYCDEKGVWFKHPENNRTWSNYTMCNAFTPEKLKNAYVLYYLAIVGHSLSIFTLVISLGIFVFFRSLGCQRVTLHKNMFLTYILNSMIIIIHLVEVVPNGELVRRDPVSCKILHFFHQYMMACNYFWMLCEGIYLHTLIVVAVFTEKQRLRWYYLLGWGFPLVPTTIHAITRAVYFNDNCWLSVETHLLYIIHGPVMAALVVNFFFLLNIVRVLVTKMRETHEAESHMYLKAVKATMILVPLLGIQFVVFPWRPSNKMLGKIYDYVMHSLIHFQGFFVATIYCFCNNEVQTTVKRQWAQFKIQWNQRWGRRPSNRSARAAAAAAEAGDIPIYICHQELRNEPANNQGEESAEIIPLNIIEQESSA
T1 sequence (looked up) 2: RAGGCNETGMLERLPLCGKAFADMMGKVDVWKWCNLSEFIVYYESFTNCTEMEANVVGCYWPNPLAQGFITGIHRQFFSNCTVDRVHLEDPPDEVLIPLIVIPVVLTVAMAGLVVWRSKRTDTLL

[2] = target: T2, human calcitonin receptor (human, UniProt P30988 25-474); test: cell-based or functional assay
T2 sequence (looked up): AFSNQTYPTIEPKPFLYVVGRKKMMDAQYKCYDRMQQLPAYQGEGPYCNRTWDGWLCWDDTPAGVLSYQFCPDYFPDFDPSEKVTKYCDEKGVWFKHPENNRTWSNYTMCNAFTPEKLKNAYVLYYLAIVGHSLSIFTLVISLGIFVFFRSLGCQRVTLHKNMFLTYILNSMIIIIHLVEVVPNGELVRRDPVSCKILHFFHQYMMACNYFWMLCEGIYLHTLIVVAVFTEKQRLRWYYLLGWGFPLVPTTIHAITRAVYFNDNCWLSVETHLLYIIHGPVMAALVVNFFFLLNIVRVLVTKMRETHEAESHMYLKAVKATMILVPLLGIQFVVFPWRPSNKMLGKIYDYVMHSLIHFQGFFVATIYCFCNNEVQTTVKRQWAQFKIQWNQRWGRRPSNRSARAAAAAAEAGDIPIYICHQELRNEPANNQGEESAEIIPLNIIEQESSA

| Binder | EC50 (cAMP production) [1] [pM] | Ratio (EC50 hCTR / EC50 hAMYR3) [1] | EC50 (cAMP production) [2] [nM] |
| --- | --- | --- | --- |
| K([γGlu-C18 diacid])KCNTATCATQRLANFLVHSS[Aib]NFGP[Aib]LPPTNVGSNTY-NH2 (disulfide 3-8; N-terminus assumed; SMILES CC(C)C[C@H](NC(=O)[C@H](CCCNC(=N)N)NC(=O)[C@H](CCC(N)=O)NC(=O)[C@@H](NC(=O)[C@H](C)NC(=O)[C@@H]1CSSC[C@H](NC(=O)[C@H](CCCCN)NC(=O)[C@@H](N)CCCCNC(=O)CC[C@H](NC(=O)CCCCCCCCCCCCCCCCC(=O)O)C(=O)O)C(=O)N[C@@H](CC(N)=O)C(=O)N[C@@H]([C@@H](C)O)C(=O)N[C@@H](C)C(=O)N[C@@H]([C@@H](C)O)C(=O)N1)[C@@H](C)O)C(=O)N[C@@H](C)C(=O)N[C@@H](CC(N)=O)C(=O)N[C@@H](Cc1ccccc1)C(=O)N[C@@H](CC(C)C)C(=O)N[C@H](C(=O)N[C@@H](Cc1c[nH]cn1)C(=O)N[C@@H](CO)C(=O)N[C@@H](CO)C(=O)NC(C)(C)C(=O)N[C@@H](CC(N)=O)C(=O)N[C@@H](Cc1ccccc1)C(=O)NCC(=O)N1CCC[C@H]1C(=O)NC(C)(C)C(=O)N[C@@H](CC(C)C)C(=O)N1CCC[C@H]1C(=O)N1CCC[C@H]1C(=O)N[C@H](C(=O)N[C@@H](CC(N)=O)C(=O)N[C@H](C(=O)NCC(=O)N[C@@H](CO)C(=O)N[C@@H](CC(N)=O)C(=O)N[C@H](C(=O)N[C@@H](Cc1ccc(O)cc1)C(N)=O)[C@@H](C)O)C(C)C)[C@@H](C)O)C(C)C) [Peptide 78 (SEQ ID NO: 78)] | 288 | 11 | 3.15 |
| K([γGlu-C18 diacid])KCNTATCATQRLANFLVHSS[Aib]NFGPI[Aib]PPTNVGSNTY-NH2 (disulfide 3-8; N-terminus assumed; SMILES CC[C@H](C)[C@H](NC(=O)[C@@H]1CCCN1C(=O)CNC(=O)[C@H](Cc1ccccc1)NC(=O)[C@H](CC(N)=O)NC(=O)C(C)(C)NC(=O)[C@H](CO)NC(=O)[C@H](CO)NC(=O)[C@H](Cc1c[nH]cn1)NC(=O)[C@@H](NC(=O)[C@H](CC(C)C)NC(=O)[C@H](Cc1ccccc1)NC(=O)[C@H](CC(N)=O)NC(=O)[C@H](C)NC(=O)[C@H](CC(C)C)NC(=O)[C@H](CCCNC(=N)N)NC(=O)[C@H](CCC(N)=O)NC(=O)[C@@H](NC(=O)[C@H](C)NC(=O)[C@@H]1CSSC[C@H](NC(=O)[C@H](CCCCN)NC(=O)[C@@H](N)CCCCNC(=O)CC[C@H](NC(=O)CCCCCCCCCCCCCCCCC(=O)O)C(=O)O)C(=O)N[C@@H](CC(N)=O)C(=O)N[C@@H]([C@@H](C)O)C(=O)N[C@@H](C)C(=O)N[C@@H]([C@@H](C)O)C(=O)N1)[C@@H](C)O)C(C)C)C(=O)NC(C)(C)C(=O)N1CCC[C@H]1C(=O)N1CCC[C@H]1C(=O)N[C@H](C(=O)N[C@@H](CC(N)=O)C(=O)N[C@H](C(=O)NCC(=O)N[C@@H](CO)C(=O)N[C@@H](CC(N)=O)C(=O)N[C@H](C(=O)N[C@@H](Cc1ccc(O)cc1)C(N)=O)[C@@H](C)O)C(C)C)[C@@H](C)O) [Peptide 79 (SEQ ID NO: 79)] | 659 | 7 | 4.8 |
| K([γGlu-γGlu-C18 diacid])CNTATCATQRLANFLRHSS[Aib]NFGPILPPTRVGSNTY-NH2 (disulfide 2-7; N-terminus assumed; SMILES CC[C@H](C)[C@H](NC(=O)[C@@H]1CCCN1C(=O)CNC(=O)[C@H](Cc1ccccc1)NC(=O)[C@H](CC(N)=O)NC(=O)C(C)(C)NC(=O)[C@H](CO)NC(=O)[C@H](CO)NC(=O)[C@H](Cc1c[nH]cn1)NC(=O)[C@H](CCCNC(=N)N)NC(=O)[C@H](CC(C)C)NC(=O)[C@H](Cc1ccccc1)NC(=O)[C@H](CC(N)=O)NC(=O)[C@H](C)NC(=O)[C@H](CC(C)C)NC(=O)[C@H](CCCNC(=N)N)NC(=O)[C@H](CCC(N)=O)NC(=O)[C@@H](NC(=O)[C@H](C)NC(=O)[C@@H]1CSSC[C@H](NC(=O)[C@@H](N)CCCCNC(=O)CC[C@H](NC(=O)CC[C@H](NC(=O)CCCCCCCCCCCCCCCCC(=O)O)C(=O)O)C(=O)O)C(=O)N[C@@H](CC(N)=O)C(=O)N[C@@H]([C@@H](C)O)C(=O)N[C@@H](C)C(=O)N[C@@H]([C@@H](C)O)C(=O)N1)[C@@H](C)O)C(=O)N[C@@H](CC(C)C)C(=O)N1CCC[C@H]1C(=O)N1CCC[C@H]1C(=O)N[C@H](C(=O)N[C@@H](CCCNC(=N)N)C(=O)N[C@H](C(=O)NCC(=O)N[C@@H](CO)C(=O)N[C@@H](CC(N)=O)C(=O)N[C@H](C(=O)N[C@@H](Cc1ccc(O)cc1)C(N)=O)[C@@H](C)O)C(C)C)[C@@H](C)O) [Peptide 77 (SEQ ID NO: 77)] | 231 | 11 | 2.52 |
| K([γGlu-γGlu-C18 diacid])KCNTATCATQRLANFLVHSS[Aib]NFGPILPPTNVGSRTY-NH2 (disulfide 3-8; N-terminus assumed; SMILES CC[C@H](C)[C@H](NC(=O)[C@@H]1CCCN1C(=O)CNC(=O)[C@H](Cc1ccccc1)NC(=O)[C@H](CC(N)=O)NC(=O)C(C)(C)NC(=O)[C@H](CO)NC(=O)[C@H](CO)NC(=O)[C@H](Cc1c[nH]cn1)NC(=O)[C@@H](NC(=O)[C@H](CC(C)C)NC(=O)[C@H](Cc1ccccc1)NC(=O)[C@H](CC(N)=O)NC(=O)[C@H](C)NC(=O)[C@H](CC(C)C)NC(=O)[C@H](CCCNC(=N)N)NC(=O)[C@H](CCC(N)=O)NC(=O)[C@@H](NC(=O)[C@H](C)NC(=O)[C@@H]1CSSC[C@H](NC(=O)[C@H](CCCCN)NC(=O)[C@@H](N)CCCCNC(=O)CC[C@H](NC(=O)CC[C@H](NC(=O)CCCCCCCCCCCCCCCCC(=O)O)C(=O)O)C(=O)O)C(=O)N[C@@H](CC(N)=O)C(=O)N[C@@H]([C@@H](C)O)C(=O)N[C@@H](C)C(=O)N[C@@H]([C@@H](C)O)C(=O)N1)[C@@H](C)O)C(C)C)C(=O)N[C@@H](CC(C)C)C(=O)N1CCC[C@H]1C(=O)N1CCC[C@H]1C(=O)N[C@H](C(=O)N[C@@H](CC(N)=O)C(=O)N[C@H](C(=O)NCC(=O)N[C@@H](CO)C(=O)N[C@@H](CCCNC(=N)N)C(=O)N[C@H](C(=O)N[C@@H](Cc1ccc(O)cc1)C(N)=O)[C@@H](C)O)C(C)C)[C@@H](C)O) [Peptide 74 (SEQ ID NO: 74)] | 356 | 13 | 4.57 |
| K([γGlu-C18 diacid])CNTATCATQRLANFLRHSS[Aib]NFGPILPPTRVGSNTY-NH2 (disulfide 2-7; N-terminus assumed; SMILES CC[C@H](C)[C@H](NC(=O)[C@@H]1CCCN1C(=O)CNC(=O)[C@H](Cc1ccccc1)NC(=O)[C@H](CC(N)=O)NC(=O)C(C)(C)NC(=O)[C@H](CO)NC(=O)[C@H](CO)NC(=O)[C@H](Cc1c[nH]cn1)NC(=O)[C@H](CCCNC(=N)N)NC(=O)[C@H](CC(C)C)NC(=O)[C@H](Cc1ccccc1)NC(=O)[C@H](CC(N)=O)NC(=O)[C@H](C)NC(=O)[C@H](CC(C)C)NC(=O)[C@H](CCCNC(=N)N)NC(=O)[C@H](CCC(N)=O)NC(=O)[C@@H](NC(=O)[C@H](C)NC(=O)[C@@H]1CSSC[C@H](NC(=O)[C@@H](N)CCCCNC(=O)CC[C@H](NC(=O)CCCCCCCCCCCCCCCCC(=O)O)C(=O)O)C(=O)N[C@@H](CC(N)=O)C(=O)N[C@@H]([C@@H](C)O)C(=O)N[C@@H](C)C(=O)N[C@@H]([C@@H](C)O)C(=O)N1)[C@@H](C)O)C(=O)N[C@@H](CC(C)C)C(=O)N1CCC[C@H]1C(=O)N1CCC[C@H]1C(=O)N[C@H](C(=O)N[C@@H](CCCNC(=N)N)C(=O)N[C@H](C(=O)NCC(=O)N[C@@H](CO)C(=O)N[C@@H](CC(N)=O)C(=O)N[C@H](C(=O)N[C@@H](Cc1ccc(O)cc1)C(N)=O)[C@@H](C)O)C(C)C)[C@@H](C)O) [Peptide 76 (SEQ ID NO: 76)] | 209 | 107 | 22.3 |
| K([γGlu-γGlu-C18 diacid])CNTATCATQRLANFLRHSS[Aib]NFGPILPPTNVGSNTY-NH2 (disulfide 2-7; N-terminus assumed; SMILES CC[C@H](C)[C@H](NC(=O)[C@@H]1CCCN1C(=O)CNC(=O)[C@H](Cc1ccccc1)NC(=O)[C@H](CC(N)=O)NC(=O)C(C)(C)NC(=O)[C@H](CO)NC(=O)[C@H](CO)NC(=O)[C@H](Cc1c[nH]cn1)NC(=O)[C@H](CCCNC(=N)N)NC(=O)[C@H](CC(C)C)NC(=O)[C@H](Cc1ccccc1)NC(=O)[C@H](CC(N)=O)NC(=O)[C@H](C)NC(=O)[C@H](CC(C)C)NC(=O)[C@H](CCCNC(=N)N)NC(=O)[C@H](CCC(N)=O)NC(=O)[C@@H](NC(=O)[C@H](C)NC(=O)[C@@H]1CSSC[C@H](NC(=O)[C@@H](N)CCCCNC(=O)CC[C@H](NC(=O)CC[C@H](NC(=O)CCCCCCCCCCCCCCCCC(=O)O)C(=O)O)C(=O)O)C(=O)N[C@@H](CC(N)=O)C(=O)N[C@@H]([C@@H](C)O)C(=O)N[C@@H](C)C(=O)N[C@@H]([C@@H](C)O)C(=O)N1)[C@@H](C)O)C(=O)N[C@@H](CC(C)C)C(=O)N1CCC[C@H]1C(=O)N1CCC[C@H]1C(=O)N[C@H](C(=O)N[C@@H](CC(N)=O)C(=O)N[C@H](C(=O)NCC(=O)N[C@@H](CO)C(=O)N[C@@H](CC(N)=O)C(=O)N[C@H](C(=O)N[C@@H](Cc1ccc(O)cc1)C(N)=O)[C@@H](C)O)C(C)C)[C@@H](C)O) [Peptide 75 (SEQ ID NO: 75)] | 161 | 99 | 16 |
